# Source: paper PMC6317994 (Cell reports, 2018)
# T1: Flag-tagged N-terminal domain of TET2 (residues 1–1127) (human, UniProt Q6N021 1-1127)
# T1 sequence: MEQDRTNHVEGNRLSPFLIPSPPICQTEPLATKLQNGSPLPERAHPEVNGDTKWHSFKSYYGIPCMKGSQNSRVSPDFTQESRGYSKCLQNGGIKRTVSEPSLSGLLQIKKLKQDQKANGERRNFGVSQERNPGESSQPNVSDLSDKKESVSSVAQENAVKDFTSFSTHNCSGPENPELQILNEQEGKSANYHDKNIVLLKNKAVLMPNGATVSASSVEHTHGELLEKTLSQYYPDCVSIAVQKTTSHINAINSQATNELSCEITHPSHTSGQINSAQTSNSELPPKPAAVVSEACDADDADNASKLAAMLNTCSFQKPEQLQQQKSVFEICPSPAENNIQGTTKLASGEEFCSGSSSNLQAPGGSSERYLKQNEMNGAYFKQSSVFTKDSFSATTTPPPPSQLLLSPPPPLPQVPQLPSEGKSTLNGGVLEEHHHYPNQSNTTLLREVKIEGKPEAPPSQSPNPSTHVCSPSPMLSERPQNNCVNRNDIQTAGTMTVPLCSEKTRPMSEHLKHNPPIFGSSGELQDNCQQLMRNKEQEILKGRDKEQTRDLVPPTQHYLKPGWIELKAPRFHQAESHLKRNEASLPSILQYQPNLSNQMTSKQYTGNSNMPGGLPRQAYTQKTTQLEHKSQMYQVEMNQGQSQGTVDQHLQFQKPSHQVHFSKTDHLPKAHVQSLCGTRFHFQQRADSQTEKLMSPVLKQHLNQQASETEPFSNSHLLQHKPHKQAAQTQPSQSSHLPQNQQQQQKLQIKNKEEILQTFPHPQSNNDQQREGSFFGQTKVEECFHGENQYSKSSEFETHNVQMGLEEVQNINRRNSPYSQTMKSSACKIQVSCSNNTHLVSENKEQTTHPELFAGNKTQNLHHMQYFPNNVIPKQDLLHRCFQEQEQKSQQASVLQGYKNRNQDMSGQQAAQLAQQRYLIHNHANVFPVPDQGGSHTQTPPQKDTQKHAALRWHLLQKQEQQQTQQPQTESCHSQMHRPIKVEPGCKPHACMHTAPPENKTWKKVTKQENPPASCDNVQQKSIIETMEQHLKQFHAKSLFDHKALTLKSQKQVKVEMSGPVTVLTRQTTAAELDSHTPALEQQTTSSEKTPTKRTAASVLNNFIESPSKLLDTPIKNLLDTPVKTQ
# B1: SNIP1 purified from E. coli (GST tag removed) (natural protein)
# chain: MKAVKSERERGSRRRHRDGDVVLPAGVVVKQERLSPEVAPPAHRRPDHSGGSPSPPTSEPARSGHRGNRARGVSRSPPKKKNKASGRRSKSPRSKRNRSPHHSTVKVKQEREDHPRRGREDRQHREPSEQEHRRARNSDRDRHRGHSHQRRTSNERPGSGQGQGRDRDTQNLQAQEEEREFYNARRREHRQRNDVGGGGSESQELVPRPGGNNKEKEVPAKEKPSFELSGALLEDTNTFRGVVIKYSEPPEARIPKKRWRLYPFKNDEVLPVMYIHRQSAYLLGRHRRIADIPIDHPSCSKQHAVFQYRLVEYTRADGTVGRRVKPYIIDLGSGNGTFLNNKRIEPQRYYELKEKDVLKFGFSSREYVLLHESSDTSEIDRKDDEDEEEEEEVSDS
# Target: T1, Flag-tagged N-terminal domain of TET2 …
# Experiment: pull-down
binder,measurement,value
B1,binding result,binds
